Legend:
[1] = target: T1, human LILRB3 (human, UniProt O75022 24-631); test: flow cytometry, LILRB3 CHOs
T1 construct: Over-expressed on CHO-s cells; also called hLILRB3

[2] = target: T2, human LILRB1 (human, UniProt Q8NHL6 24-650); test: flow cytometry, LILRB1 CHOs
T2 construct: Over-expressed on CHO-s cells; also called hLILRB1

[3] = target: T3, human LILRA6 (human, UniProt Q6PI73 24-481); test: flow cytometry, LILRA6 CHOs
T3 construct: Over-expressed on CHO-s cells; also called hLILRA6

[4] = target: T4, human LILRB2 expressed on cells (human, UniProt Q8N423 22-597); test: flow cytometry, LILRB2 CHOs
T4 construct: CHO-s cells over-expressing full-length human LILRB2, or primary human macrophages and dendritic cells; also called hLILRB2-CHO-s; hLILRB2+ CHO-s
T4 sequence (Q8N423 other isoform, or with tags, fused parts or gaps limits assumed): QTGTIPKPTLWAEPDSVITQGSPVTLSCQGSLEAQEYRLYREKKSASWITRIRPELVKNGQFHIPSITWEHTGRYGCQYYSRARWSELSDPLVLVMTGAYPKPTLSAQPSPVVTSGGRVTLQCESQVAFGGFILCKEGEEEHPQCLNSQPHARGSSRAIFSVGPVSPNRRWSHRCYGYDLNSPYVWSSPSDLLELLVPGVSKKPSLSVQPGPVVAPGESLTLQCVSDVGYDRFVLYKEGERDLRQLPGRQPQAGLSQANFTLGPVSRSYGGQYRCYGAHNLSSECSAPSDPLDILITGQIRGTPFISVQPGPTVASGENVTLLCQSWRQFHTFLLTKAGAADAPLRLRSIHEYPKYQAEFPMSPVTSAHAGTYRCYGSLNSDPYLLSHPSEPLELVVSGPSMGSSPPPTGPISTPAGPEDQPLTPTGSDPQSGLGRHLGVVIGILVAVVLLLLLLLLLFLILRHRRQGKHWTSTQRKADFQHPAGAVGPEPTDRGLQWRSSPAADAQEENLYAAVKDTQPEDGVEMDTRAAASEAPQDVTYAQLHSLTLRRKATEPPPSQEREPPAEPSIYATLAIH

[5] = target: T4, human LILRB2 expressed on cells; test: cell-based or functional assay
[6] = target: T4, human LILRB2 expressed on cells; test: blocking of HLA-A2 tetramer on LILRB2 CHOs, flow cytometry, mAb 10 ug/mL
Experimental: (§1) In the secondary screen, 1×10⁵ CHO-s cells over-expressing human LILRB2 were plated in 96-well round-bottom tissue culture-treated plate and washed twice with 1×DPBS (Gibco) and incubated with 10 μg/mL primary antibody (anti-LILRB2 mAbs or control) prepared in 50 μL FACS buffer (1×DPBS containing 2% HI-FBS (Sigma)+0.05% Sodium Azide). After incubation with mAbs for 30 minutes at 4° C., cells were washed twice in FACS buffer and then resuspended in 50 μL of FACS buffer containing 5 μg/mL APC-conjugated HLA-A2 or HLA-G tetramer (Fred Hutch). Cells were incubated protected from light for 30-60 minutes at 4° C. After incubation with tetramer, cells were washed in FACS buffer and re-suspended in fix buffer (1.5% paraformaldehyde diluted in 1×DPBS). Samples were analyzed using the Celesta flow cytometer analyzer (BD Biosciences). Data represent percent tetramer blocked by mAbs relative to tetramer alone, calculated according to the following equation: […]

[7] = target: T5, human LILRA5 (human, UniProt A6NI73 42-299); test: flow cytometry, LILRA5 CHOs
T5 construct: Over-expressed on CHO-s cells; also called hLILRA5
T5 sequence (A6NI73 42-299 limits assumed): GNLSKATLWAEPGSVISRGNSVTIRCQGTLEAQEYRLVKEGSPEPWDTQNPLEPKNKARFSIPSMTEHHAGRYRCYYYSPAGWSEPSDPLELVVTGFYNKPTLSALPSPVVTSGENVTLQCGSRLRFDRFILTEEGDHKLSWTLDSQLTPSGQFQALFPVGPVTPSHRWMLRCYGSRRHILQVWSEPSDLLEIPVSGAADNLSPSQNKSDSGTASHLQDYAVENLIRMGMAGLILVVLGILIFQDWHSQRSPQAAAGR

[8] = target: T6, human LILRA3 (human, UniProt Q8N6C8 24-439); test: flow cytometry, LILRA3 CHOs
T6 construct: Over-expressed on CHO-s cells; also called hLILRA3
T6 sequence (Q8N6C8 24-439 limits assumed): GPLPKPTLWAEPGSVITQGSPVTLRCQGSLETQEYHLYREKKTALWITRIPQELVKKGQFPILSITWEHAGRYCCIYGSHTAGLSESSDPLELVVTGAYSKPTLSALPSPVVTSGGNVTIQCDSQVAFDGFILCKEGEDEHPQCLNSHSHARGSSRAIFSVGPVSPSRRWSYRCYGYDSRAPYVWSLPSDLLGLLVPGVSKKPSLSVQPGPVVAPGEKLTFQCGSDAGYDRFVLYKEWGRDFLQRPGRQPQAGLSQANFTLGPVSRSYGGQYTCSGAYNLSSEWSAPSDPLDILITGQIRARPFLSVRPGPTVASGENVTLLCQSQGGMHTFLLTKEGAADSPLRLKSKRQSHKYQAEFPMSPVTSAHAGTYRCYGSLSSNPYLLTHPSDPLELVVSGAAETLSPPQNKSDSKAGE

[9] = target: T7, human LILRA2 (human, UniProt Q8N149 24-483); test: flow cytometry, LILRA2 CHOs
T7 construct: Over-expressed on CHO-s cells; also called hLILRA2
T7 sequence (Q8N149 24-483 S135L limits assumed): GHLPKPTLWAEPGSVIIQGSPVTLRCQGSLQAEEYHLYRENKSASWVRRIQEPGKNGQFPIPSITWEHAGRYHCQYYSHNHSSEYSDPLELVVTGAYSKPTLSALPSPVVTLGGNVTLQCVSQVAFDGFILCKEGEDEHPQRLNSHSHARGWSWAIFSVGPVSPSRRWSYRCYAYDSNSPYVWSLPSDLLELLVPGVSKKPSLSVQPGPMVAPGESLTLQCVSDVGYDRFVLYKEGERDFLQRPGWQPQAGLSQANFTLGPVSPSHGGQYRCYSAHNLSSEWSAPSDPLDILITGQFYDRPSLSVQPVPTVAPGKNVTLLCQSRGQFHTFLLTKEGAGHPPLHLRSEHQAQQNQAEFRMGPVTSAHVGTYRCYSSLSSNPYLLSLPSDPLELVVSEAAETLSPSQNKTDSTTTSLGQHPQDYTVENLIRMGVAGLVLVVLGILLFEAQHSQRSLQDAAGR

[10] = target: T8, human LILRB5 (human, UniProt O75023 24-590); test: flow cytometry, LILRB5 CHOs
T8 construct: Over-expressed on CHO-s cells; also called hLILRB5
T8 sequence (O75023 24-590 P542R limits assumed): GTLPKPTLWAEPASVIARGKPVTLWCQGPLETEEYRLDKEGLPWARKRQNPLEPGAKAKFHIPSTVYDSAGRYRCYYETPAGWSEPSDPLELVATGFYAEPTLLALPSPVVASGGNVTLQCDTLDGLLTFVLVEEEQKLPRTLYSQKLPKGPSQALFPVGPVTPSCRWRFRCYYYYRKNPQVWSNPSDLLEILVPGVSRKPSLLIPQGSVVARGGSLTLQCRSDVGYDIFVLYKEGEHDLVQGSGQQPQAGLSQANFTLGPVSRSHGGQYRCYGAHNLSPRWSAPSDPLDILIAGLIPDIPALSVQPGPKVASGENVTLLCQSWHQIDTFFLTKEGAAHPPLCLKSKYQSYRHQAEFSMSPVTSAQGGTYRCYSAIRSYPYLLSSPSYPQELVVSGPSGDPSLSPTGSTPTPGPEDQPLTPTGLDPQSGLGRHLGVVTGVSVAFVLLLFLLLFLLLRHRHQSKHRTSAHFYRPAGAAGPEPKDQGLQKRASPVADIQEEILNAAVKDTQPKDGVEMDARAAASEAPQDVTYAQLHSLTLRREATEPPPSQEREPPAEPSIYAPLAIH

[11] = target: T9, human LILRA1 (human, UniProt O75019 17-489); test: flow cytometry, LILRA1 CHOs
T9 construct: Over-expressed on CHO-s cells; also called hLILRA1
T9 sequence (O75019 17-489 limits assumed): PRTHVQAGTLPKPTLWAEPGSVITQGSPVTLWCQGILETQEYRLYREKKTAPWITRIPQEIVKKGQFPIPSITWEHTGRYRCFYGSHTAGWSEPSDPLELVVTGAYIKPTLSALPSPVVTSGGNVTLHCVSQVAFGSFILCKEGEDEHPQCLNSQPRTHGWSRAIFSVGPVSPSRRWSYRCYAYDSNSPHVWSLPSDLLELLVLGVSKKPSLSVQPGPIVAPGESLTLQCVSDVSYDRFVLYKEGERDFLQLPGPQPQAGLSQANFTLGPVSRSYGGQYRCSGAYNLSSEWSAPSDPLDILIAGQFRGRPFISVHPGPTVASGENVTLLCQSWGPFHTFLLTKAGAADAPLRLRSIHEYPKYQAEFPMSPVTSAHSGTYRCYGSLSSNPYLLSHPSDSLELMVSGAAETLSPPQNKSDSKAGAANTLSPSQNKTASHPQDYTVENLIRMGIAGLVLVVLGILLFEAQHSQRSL

[12] = target: T4, human LILRB2 expressed on cells; test: blocking of HLA-G tetramer on LILRB2 CHOs, flow cytometry, mAb 10 ug/mL
Experimental: as §1

[13] = target: T10, human LILRB4 (human, UniProt Q8NHJ6 22-448); test: flow cytometry, LILRB4 CHOs
T10 construct: Over-expressed on CHO-s cells; also called hLILRB4

T3 sequence (Q6PI73 24-481 limits assumed): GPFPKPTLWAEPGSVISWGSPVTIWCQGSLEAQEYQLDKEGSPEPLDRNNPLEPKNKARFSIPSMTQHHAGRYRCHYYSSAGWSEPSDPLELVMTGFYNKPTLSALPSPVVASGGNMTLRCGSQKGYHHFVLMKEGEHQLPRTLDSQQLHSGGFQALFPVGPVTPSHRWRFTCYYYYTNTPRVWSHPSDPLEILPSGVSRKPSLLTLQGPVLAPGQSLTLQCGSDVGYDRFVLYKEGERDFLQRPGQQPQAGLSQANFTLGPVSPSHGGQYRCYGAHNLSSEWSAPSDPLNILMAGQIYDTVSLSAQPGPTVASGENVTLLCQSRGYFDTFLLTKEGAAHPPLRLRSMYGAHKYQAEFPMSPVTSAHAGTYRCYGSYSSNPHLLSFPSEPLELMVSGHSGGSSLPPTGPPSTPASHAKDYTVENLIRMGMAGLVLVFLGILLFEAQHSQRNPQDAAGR
T2 sequence (Q8NHL6 24-650 limits assumed): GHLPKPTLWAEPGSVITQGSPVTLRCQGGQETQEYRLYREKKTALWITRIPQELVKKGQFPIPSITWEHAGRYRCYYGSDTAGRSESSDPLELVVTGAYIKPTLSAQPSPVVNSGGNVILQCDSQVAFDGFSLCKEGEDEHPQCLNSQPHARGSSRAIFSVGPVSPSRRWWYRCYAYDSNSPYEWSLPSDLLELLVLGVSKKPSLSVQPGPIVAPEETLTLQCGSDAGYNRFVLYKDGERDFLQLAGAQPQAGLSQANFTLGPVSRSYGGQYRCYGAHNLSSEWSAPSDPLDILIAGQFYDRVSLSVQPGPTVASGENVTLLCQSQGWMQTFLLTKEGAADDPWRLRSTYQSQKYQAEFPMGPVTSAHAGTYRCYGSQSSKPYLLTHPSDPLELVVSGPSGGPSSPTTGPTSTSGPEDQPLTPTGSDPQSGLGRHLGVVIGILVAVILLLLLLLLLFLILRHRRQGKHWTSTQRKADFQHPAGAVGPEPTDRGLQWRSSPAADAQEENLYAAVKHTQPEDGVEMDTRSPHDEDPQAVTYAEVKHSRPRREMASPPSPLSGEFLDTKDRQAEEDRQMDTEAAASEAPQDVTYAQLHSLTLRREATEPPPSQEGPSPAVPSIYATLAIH

Binder	binding (fold over iso) [1]	binding result [1]	binding (fold over iso) [2]	binding result [2]	binding (fold over iso) [3]	binding result [3]	binding (fold over iso) [4]	CCL2 production (fold over LPS alone) [5]	IL-6 production (fold over LPS alone) [5]	IL-10 production (fold over LPS alone) [5]	TNFa production (fold over LPS alone) [5]	HLA-A2:LILRB2 CHOs blocking (% blocked) [6]	binding (fold over iso) [7]	binding result [7]	binding (fold over iso) [8]	binding result [8]	binding (fold over iso) [9]	binding result [9]	binding (fold over iso) [10]	binding result [10]	further results
J-04 (antibody, human IgG4 S228P, kappa, V domains shown, Human IgG4 chimera of murine origin) VH: QVQLQQSGAELVRPGASVTLSCKASGYTFADYEIHWVKQTPVHGLEWIGAIDPETGGTAYNQKFKGKAILTADKSSSTAYMELRSLTSEDSAVYYCTRYYDYDDAMDYWGQGTSVTVSS VL: QIVLTQSPAIMSASPGEKVTMTCSASSSVSFMHWYQQKSGTSPKRWIYGTSKLASGVPARFSGSGSGTSYSLTISSMEAEDAATYYCQQWNGNPFTFGSGTKLETKR	0.9 fold over iso	no binding	0.95 fold over iso	no binding	1.3 fold over iso	no binding	33.8 fold over iso	1 fold over LPS alone	1.36 fold over LPS alone	0.95 fold over LPS alone	1.18 fold over LPS alone	-319 % blocked	0.74 fold over iso	no binding	0.93 fold over iso	no binding	1.62 fold over iso	no binding	1.08 fold over iso	no binding	binding (fold over iso) [11]: 0.88 fold over iso; binding result [11]: no binding; HLA-G:LILRB2 CHOs blocking (% blocked) [12]: -255 % blocked; binding (fold over iso) [13]: 0.83 fold over iso; binding result [13]: no binding
J-03 (antibody, human IgG4 S228P, kappa, V domains shown, Human IgG4 chimera of murine origin) VH: QVQLQQSGAELVRPGASVTLSCKASGYKFTDYEMHWVKQTPVHGLEWIGAIDPETNGTAYNKKFKGKAILTADKSSSTAYMELRSLTSEDSAVYYCTRGDYDFSAWFAYWGQGTLVTVSA VL: DIVLTQSPASLAVSLGQRATISCRASESVDNYDISFMHWYQQKPGQPPKLLIYRASNLESGIPARFSGSGSRTDFTLTINPVETDDVATYYCQQSNKDPRTFGGGTKLEIKR	0.97 fold over iso	no binding	0.94 fold over iso	no binding	1.23 fold over iso	no binding	30.1 fold over iso	0.95 fold over LPS alone	1.1 fold over LPS alone	0.97 fold over LPS alone	1.27 fold over LPS alone	-208 % blocked	0.96 fold over iso	no binding	1.05 fold over iso	no binding	1.58 fold over iso	no binding	1 fold over iso	no binding	binding (fold over iso) [11]: 0.89 fold over iso; binding result [11]: no binding; HLA-G:LILRB2 CHOs blocking (% blocked) [12]: -156 % blocked; binding (fold over iso) [13]: 1.02 fold over iso; binding result [13]: no binding

Source: US20200339690A1 (JOUNCE THERAPEUTICS, published 2020)
